Substrate in series [1]: NC(=O)C1=CN([C@@H]2O[C@H](COP(=O)(O)OP(=O)(O)OC[C@H]3O[C@@H](n4cnc5c(N)ncnc54)[C@H](OP(=O)(O)O)[C@@H]3O)[C@@H](O)[C@H]2O)C=CC1
In words: steady-state kinetics. In kind it is biochemical, Thermotoga maritima. As to conditions: 45 °C, light enzyme (natural isotope abundance), co-substrate dihydrofolate, steady-state kinetics at pH 7.

Substrate in series [2]: Nc1nc2c(c(=O)[nH]1)N=C(CNc1ccc(C(=O)N[C@@H](CCC(=O)O)C(=O)O)cc1)CN2
In words: steady-state kinetics. In kind it is biochemical, Thermotoga maritima. The settings on record: 45 °C, light enzyme (natural isotope abundance), co-substrate NADPH, steady-state kinetics at pH 7.

B1: TmDHFR (Thermotoga maritima MSB8) (protein)
chain: MAKVIFVLAMDVSGKIASSVESWSSFEDRKNFRKITTEIGNVVMGRITFEEIGRPLPERLNVVLTRRPKTSNNPSLVFFNGSPADVVKFLEGKGYERVAVIGGKTVFTEFLREKLVDELFVTVEPYVFGKGIPFFDEFEGYFPLKLLEMRRLNERGTLFLKYSVEKSHR
notes: purified homodimer, natural isotope abundance (light) enzyme; procedures in supplement
On to B1, for which the Km in the series “steady-state kinetics [1]” and in the series “steady-state kinetics [2]” was 1 µM throughout.

As usually defined, the Km is the concentration of substrate that gives half-maximal velocity.
